Reference: article PMC3172300, “Modulation of Catalytic Activity in Multi-Domain Protein Tyrosine Phosphatases” (PLoS ONE, 2011)
Read-outs that look alike come from different tables or passages of the source. Square brackets hold non-standard residues; d marks the D form. Ends that are not written are not given here. pY = N[C@@H](Cc1ccc(OP(=O)(O)O)cc1)C(=O)O

Assays:
DLAR D1D2 [1] = target: T1, DLAR D1D2 (Drosophila melanogaster, UniProt P16621); experiment: Dephosphorylation of phosphotyrosine peptides (malachite green), DLAR D1D2; type: biochemical; conditions: 0.01 µM protein, 25 mM citrate pH 6.0, 15 min at 25°C, malachite green
T1 construct: DLAR 1448-2029; His tag (pET-15b or pET-22b); made in house; host or cells: E. coli BL21(DE3)
T1 sequence (P16621 1448-2029): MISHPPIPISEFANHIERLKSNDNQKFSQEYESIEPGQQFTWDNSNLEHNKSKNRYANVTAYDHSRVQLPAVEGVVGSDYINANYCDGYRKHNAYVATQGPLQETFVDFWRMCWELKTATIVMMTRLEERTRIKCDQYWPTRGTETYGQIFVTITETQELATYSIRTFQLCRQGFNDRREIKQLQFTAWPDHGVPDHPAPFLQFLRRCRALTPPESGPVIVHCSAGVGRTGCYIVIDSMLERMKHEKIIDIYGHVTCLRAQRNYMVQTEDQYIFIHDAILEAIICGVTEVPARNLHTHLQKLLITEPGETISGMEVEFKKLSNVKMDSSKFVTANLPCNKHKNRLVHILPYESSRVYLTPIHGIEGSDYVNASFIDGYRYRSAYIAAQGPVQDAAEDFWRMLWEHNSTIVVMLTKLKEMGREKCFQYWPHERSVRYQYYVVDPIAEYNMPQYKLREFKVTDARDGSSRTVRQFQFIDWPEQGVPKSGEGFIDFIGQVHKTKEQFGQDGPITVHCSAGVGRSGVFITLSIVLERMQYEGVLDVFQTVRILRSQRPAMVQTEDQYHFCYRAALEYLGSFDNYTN
From the text: (§1) Substrates of PTPs characterized thus far include the activation loop segments of various kinases and regulatory loops of other signaling proteins. Suitably designed peptide substrates mimic the physiologically relevant substrates of PTPs. In the present study, peptide substrates were designed for DLAR for which more information was available on its interacting partners. […] The five peptides were chosen based on their distinct charge distributions around the central phosphotyrosine residue. The phosphorylated as well as non-phosphorylated peptides were obtained from GL Bioscience, China. The peptides were >95% pure and were used after a single round of desalting using a Sephadex G25 column (GE Healthcare). The concentration of the peptide samples for biochemical studies was ascertained by UV absorption at 268 nm for the pY residue.
(§2) Phosphatase activity of the recombinant PTP domains was determined by using para-Nitrophenylphosphate (pNPP), a small molecule generic substrate, as well as phosphotyrosine containing peptides. The pNPP assay was performed as reported previously, with a modification in the buffer composition (25 mM Citrate, Glycine and HEPES (CGH), pH 6.5, 100 mM NaCl and 2 mM DTT). Phosphatase activity with the phosphotyrosine peptides was ascertained by the malachite green reaction as described for PTPs previously. Briefly, the reaction mixture comprised of 0.01 µM protein incubated with increasing concentrations of different peptides in 25 mM citrate buffer pH 6.0, 100 mM NaCl and 2 mM DTT for 15 min at 25°C. The reaction was stopped by the addition of the Biomol Green reagent (Enzo Life Sciences) and the colour developed after 20 min was quantified at 650 nm. For all the assays, kinetic constants for the steady state catalysis were obtained by fitting the reaction curves to the Michaelis-Menten equation using the nonlinear regression module of Sigma plot software (Systat Software, Inc.).

DLAR D1HSS D2 = target: T2, DLAR D1HSS D2 (Drosophila melanogaster, UniProt P16621, C1670S); experiment: Surface Plasmon Resonance peptide binding, DLAR D1HSS D2; conditions: two-site model, read-out: ka
T2 construct: DLAR 1448-2029; His tag (pET-15b or pET-22b); made in house; host or cells: E. coli BL21(DE3)
T2 sequence (P16621 1448-2029 C1670S): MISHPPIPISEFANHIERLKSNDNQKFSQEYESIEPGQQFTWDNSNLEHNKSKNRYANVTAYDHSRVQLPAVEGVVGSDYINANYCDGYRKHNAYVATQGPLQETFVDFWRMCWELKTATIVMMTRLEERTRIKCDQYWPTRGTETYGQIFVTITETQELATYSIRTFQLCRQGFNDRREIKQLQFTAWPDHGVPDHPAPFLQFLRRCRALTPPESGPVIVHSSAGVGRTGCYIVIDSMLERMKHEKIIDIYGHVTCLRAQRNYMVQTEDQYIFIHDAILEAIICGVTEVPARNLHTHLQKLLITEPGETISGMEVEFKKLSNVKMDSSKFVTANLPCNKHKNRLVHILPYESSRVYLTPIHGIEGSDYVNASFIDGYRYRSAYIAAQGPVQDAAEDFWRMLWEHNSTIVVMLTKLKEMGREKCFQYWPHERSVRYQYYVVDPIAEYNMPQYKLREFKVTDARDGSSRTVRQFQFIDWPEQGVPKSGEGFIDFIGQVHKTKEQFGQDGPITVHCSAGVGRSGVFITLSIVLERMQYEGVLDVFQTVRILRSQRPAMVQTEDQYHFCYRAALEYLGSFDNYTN
Experimental: (§3) The binding of phosphotyrosine peptides to the PTP domains was studied by Surface Plasmon Resonance on a Biacore-2000 instrument (BIAcore, AB). All experiments were conducted at 25°C. DLAR PTP domains were immobilized onto carboxylated dextran CM5 chips (BIAcore AB) using the standard amine coupling procedure as recommended by the manufacturer. Binding and kinetic assays were performed in 10 mM HEPES, pH 8.0, 150 mM NaCl, 10 mM DTT and 3 mM EDTA at a flow rate of 5 µL/min. The peptides were used at concentrations ranging from 50–700 µM. Dissociation was initiated by replacing the analyte with buffer. The association and dissociation curves were monitored for 600 sec. Sensograms were analyzed with BIA-evaluation software version 2 (BIAcore AB). Sensograms for DLAR D1D2, DLAR D1HSSD2 and DLAR D1D2HSS were fitted to two-site binding equations. DLAR D1 and DLAR D2 sensograms were fitted using a single-site binding model.

DLAR D1 D2HSS [2] = target: T3, DLAR D1 D2HSS (Drosophila melanogaster, UniProt P16621, C1961S); type: biochemical; conditions: 0.01 µM protein, 25 mM citrate pH 6.0, 15 min at 25°C, malachite green
T3 construct: DLAR 1448-2029; His tag (pET-15b or pET-22b); made in house; host or cells: E. coli BL21(DE3)
T3 sequence (P16621 1448-2029 C1961S): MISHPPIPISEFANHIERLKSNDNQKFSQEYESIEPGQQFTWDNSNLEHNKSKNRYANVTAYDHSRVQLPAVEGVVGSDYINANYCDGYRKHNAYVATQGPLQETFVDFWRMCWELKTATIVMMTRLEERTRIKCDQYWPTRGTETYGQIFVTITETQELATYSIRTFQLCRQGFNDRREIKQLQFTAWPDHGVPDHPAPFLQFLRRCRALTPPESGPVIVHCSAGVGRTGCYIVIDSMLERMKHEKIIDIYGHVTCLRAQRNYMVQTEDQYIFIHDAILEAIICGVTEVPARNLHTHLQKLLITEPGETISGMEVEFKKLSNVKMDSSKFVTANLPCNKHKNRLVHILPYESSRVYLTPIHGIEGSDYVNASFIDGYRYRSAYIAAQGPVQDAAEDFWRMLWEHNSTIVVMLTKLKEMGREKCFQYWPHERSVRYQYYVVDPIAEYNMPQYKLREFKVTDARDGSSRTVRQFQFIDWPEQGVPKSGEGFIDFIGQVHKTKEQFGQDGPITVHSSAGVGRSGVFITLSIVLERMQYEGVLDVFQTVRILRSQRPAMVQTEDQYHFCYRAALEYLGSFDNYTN
From the text: as §1, §2

DLAR D1 D2HSS [3] = target: T3, DLAR D1 D2HSS; experiment: Surface Plasmon Resonance peptide binding, DLAR D1 D2HSS; conditions: two-site model, read-out: ka
Experimental: as §3

DLAR D1D2 [4] = target: T1, DLAR D1D2; experiment: Surface Plasmon Resonance peptide binding, DLAR D1D2; conditions: two-site model; for kon: read-out: ka
Experimental: as §3

DLAR D1 = target: T4, DLAR D1 (Drosophila melanogaster, UniProt P16621); experiment: Dephosphorylation of phosphotyrosine peptides (malachite green), DLAR D1; type: biochemical; conditions: 0.01 µM protein, 25 mM citrate pH 6.0, 15 min at 25°C, malachite green
T4 construct: DLAR 1448-1746; His tag (pET-15b or pET-22b); made in house; host or cells: E. coli BL21(DE3)
T4 sequence (P16621 1448-1746): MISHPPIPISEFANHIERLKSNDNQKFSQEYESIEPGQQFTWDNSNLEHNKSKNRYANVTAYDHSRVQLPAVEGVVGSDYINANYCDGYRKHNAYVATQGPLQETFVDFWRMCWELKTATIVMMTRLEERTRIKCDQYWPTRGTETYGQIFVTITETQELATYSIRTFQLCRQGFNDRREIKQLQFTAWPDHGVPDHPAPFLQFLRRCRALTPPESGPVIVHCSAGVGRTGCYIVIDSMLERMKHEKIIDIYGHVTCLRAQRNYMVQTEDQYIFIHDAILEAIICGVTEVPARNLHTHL
From the text: as §1, §2

[5] = target: DLAR D1 (membrane-proximal PTP domain of DLAR) (Drosophila melanogaster); experiment: SPR; Biacore-2000; DLAR PTP domains immobilised on CM5 chips by amine coupling; peptides as analyte at 50-700 µM; 25°C; 10 mM HEPES pH 8.0, 150 mM NaCl, 10 mM DTT, 3 mM EDTA; 5 µL/min; two independent sites fit for the double domain constructs, single-site fit for DLAR D1 and DLAR D2
[6] = target: DLAR D2 (membrane-distal PTP domain of DLAR) (Drosophila melanogaster); experiment: as above
[7] = target: DLAR D1D2 (tandem PTP domains of Drosophila Leukocyte antigen Related) (Drosophila melanogaster); experiment: as above
[8] = target: DLAR D1D2HSS (Cys to Ser mutation in the D2 domain) (Drosophila melanogaster); experiment: as above
[9] = target: DLAR D1HSS D2 (Cys to Ser mutation in the D1 domain) (Drosophila melanogaster); experiment: as above
[10] = pH 8, SPR Biacore-2000, 25°C, 10 mM HEPES pH 8.0, 150 mM NaCl, 10 mM DTT, 3 mM EDTA, peptides 50–700 µM, first binding site
[11] = pH 8, SPR, 25°C, pH 8.0, second binding site

`CC[C@H](C)[C@H](NC(=O)[C@H](CC(=O)O)NC(=O)[C@H](CCCNC(=N)N)NC(=O)[C@@H](N)[C@@H](C)O)C(=O)N[C@@H](Cc1ccc(OP(=O)(O)O)cc1)C(=O)N[C@@H](CCC(=O)O)C(=O)N[C@H](C(=O)N[C@@H](CC(=O)O)C(=O)N[C@@H](Cc1ccc(O)cc1)C(=O)N[C@@H](Cc1ccc(O)cc1)C(=O)N[C@@H](CCCNC(=N)N)C(=O)N[C@@H](CCCCN)C(=O)O)[C@@H](C)O` [Insulin Receptor peptide] showed a Km (DLAR D1D2 [1]) of 110 ± 7.82 µM, a kon (DLAR D1HSS D2; [10]) of 72.6 ± 1.2 M⁻¹ s⁻¹ and a kon (DLAR D1HSS D2; [11]) of 74.5 ± 1.6 M⁻¹ s⁻¹. For the same molecule, the Km (DLAR D1 D2HSS [2]) was 45.3 ± 4.1 µM, the kon (DLAR D1 D2HSS [3]; [10]) was 137 ± 2.84 M⁻¹ s⁻¹ and the kon (DLAR D1 D2HSS [3]; [11]) was 12.3 ± 0.02 M⁻¹ s⁻¹. The Kd (DLAR D1D2 [4]; SPR, 25°C, pH 8.0, first binding site) was 62.2 ± 0.48 µM, the kon (DLAR D1D2 [4]; [10]) was 110 ± 2.32 M⁻¹ s⁻¹ and the kon (DLAR D1D2 [4]; [11]) was 2860 ± 90000 M⁻¹ s⁻¹. The Km (DLAR D1) was 59.5 ± 5.6 µM.

Molecule TAEPD[pY]GALYE [Cuticle Peptide TAEPD(pY)GALYE] has a Kd [5] of 94.6 µM, a koff [5] of 0.00176 s⁻¹ and a kon [5] of 18.6 M⁻¹ s⁻¹. It also gave a Kd [6] of 104 µM, a koff [6] of 0.00552 s⁻¹ and a kon [6] of 52.8 M⁻¹ s⁻¹. The KD, first binding site [7] was 313 µM, the KD, second binding site [7] was 2.02 µM and the ka, first binding site [7] was 32.6 M⁻¹ s⁻¹. The ka, second binding site [7] was 16500 M⁻¹ s⁻¹, the kd, first binding site [7] was 0.0102 s⁻¹ and the kd, second binding site [7] was 0.0333 s⁻¹. For the same molecule, the KD, first binding site [8] was 296 µM, the KD, second binding site [8] was 9.43 µM and the ka, first binding site [8] was 51.7 M⁻¹ s⁻¹. It also gave a ka, second binding site [8] of 1.37 M⁻¹ s⁻¹, a kd, first binding site [8] of 0.0153 s⁻¹ and a kd, second binding site [8] of 1.3e-05 s⁻¹. It also gave a KD, first binding site [9] of 87.5 µM, a KD, second binding site [9] of 1.87 µM and a ka, first binding site [9] of 74.7 M⁻¹ s⁻¹. It also gave a ka, second binding site [9] of 28800 M⁻¹ s⁻¹, a kd, first binding site [9] of 0.00654 s⁻¹ and a kd, second binding site [9] of 0.054 s⁻¹.
